Laboratory results from patent US20100260668A1 (published 2010).
One block for each binder: values may come before it.

Columns and labels:
DLL4 [1] = target: T1, DLL4 (human, UniProt Q9NR61 27-685); test: flow cytometry on 293G-human DLL4 cells; DLL4 VD N-terminal
T1 construct: whole, on cells; also called human DLL4

PlGF (Placental GF) = target: T2, PlGF (Placental GF) (UniProt P49763-2 21-149, limits assumed); test: Direct Bind ELISA, antigen on plate; N-terminal VD
T2 construct: Bought reagent
T2 sequence (looked up): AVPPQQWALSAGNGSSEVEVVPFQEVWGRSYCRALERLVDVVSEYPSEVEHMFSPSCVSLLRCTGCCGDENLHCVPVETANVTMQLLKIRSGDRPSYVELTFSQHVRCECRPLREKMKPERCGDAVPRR
Experimental: (§1) Enzyme Linked Immunosorbent Assays to screen for antibodies that bind a desired target antigen were performed as follows. […] Plates were washed four times with PBS containing 0.02% Tween 20. Plates were blocked by the addition of 300 μL/well blocking solution (non-fat dry milk powder, various retail suppliers, diluted to 2% in PBS) for ½ hour at room temperature. Plates were washed four times after blocking with PBS containing 0.02% Tween 20.
(§2) Alternatively, one hundred microliters per well of 10 μg/ml of Histidine (His) tagged desired target antigen (R&D Systems, Minneapolis, Minn.) was added to ELISA plates coated with monoclonal mouse anti-polyHistidine antibody as described above and incubated for 1 hour at room temperature. Wells were washed four times with PBS containing 0.02% Tween 20.
(§3) One hundred microliters of antibody or DVD-Ig preparations diluted in blocking solution as described above was added to the desired target antigen plate or desired target antigen/FC fusion plate or the anti-polyHistidine antibody/His tagged desired target antigen plate prepared as described above and incubated for 1 hour at room temperature. Wells are washed four times with PBS containing 0.02% Tween 20.

DLL4 (DLL4 ECD/His tag) = target: T3, DLL4 (DLL4 ECD/His tag) (UniProt Q9NR61 27-529, limits assumed); test: Direct Bind ELISA, antigen on plate; C-terminal VD
T3 construct: extracellular domain; Bought reagent

RON = target: T4, RON (UniProt Q04912 25-1400, limits assumed); test: flow cytometry on cells carrying the target, 2 ug/mL; C-terminal VD
T4 construct: whole, on cells; also called macrophage stimulating protein receptor tyrosine kinase; MSP receptor
Experimental: (§4) Stable cell lines overexpressing a cell-surface antigen of interest or human tumor cell lines were harvested from tissue culture flasks and resuspended in phosphate buffered saline (PBS) containing 5% fetal bovine serum (PBS/FBS). Prior to staining, human tumor cells were incubated on ice with (100 μl) human IgG at 5 μg/ml in PBS/FCS. 1-5×10⁵ cells were incubated with antibody or DVD-Ig (2 μg/mL) in PBS/FBS for 30-60 minutes on ice. […] After 30 minutes incubation on ice, cells were washed twice and resuspended in PBS/FBS. Fluorescence was measured using a Becton Dickinson FACSCalibur (Becton Dickinson, San Jose, Calif.).
(§5) The geometric mean is the n root of the multiplication product of n fluorescent signals (a1×a2×a3 . . . an). With log-transformed data the geometric mean is used to normalize the weighting of the data distribution.

[2] = target: T5, human DLL4 extracellular domain (human, UniProt Q9NR61 27-529, biotin label in the Notch-1 competition ELISA (sites not given)); test: competition ELISA: biotin-labelled human DLL4 ECD pre-mixed with DVD-Ig, then on coated human Notch-1 (competitor Notch-1)
T5 construct: extracellular domain; also called biotin labeled human DLL4 extracellular domain

DLL4 [3] = target: T1, DLL4; test: flow cytometry on cells carrying the target, 2 ug/mL; C-terminal VD
Experimental: as §4, §5

[4] = target: T6, ErbB3 (ErbB3 ECD/FC Chimera-His tag) (UniProt P21860 20-643, limits assumed); test: Direct Bind ELISA, antigen on plate
T6 construct: extracellular domain; Bought reagent
Experimental: as §1, §2, §3

B1: DVD471 (bispecific antibody, human IgG1, kappa, L234A L235A)
heavy: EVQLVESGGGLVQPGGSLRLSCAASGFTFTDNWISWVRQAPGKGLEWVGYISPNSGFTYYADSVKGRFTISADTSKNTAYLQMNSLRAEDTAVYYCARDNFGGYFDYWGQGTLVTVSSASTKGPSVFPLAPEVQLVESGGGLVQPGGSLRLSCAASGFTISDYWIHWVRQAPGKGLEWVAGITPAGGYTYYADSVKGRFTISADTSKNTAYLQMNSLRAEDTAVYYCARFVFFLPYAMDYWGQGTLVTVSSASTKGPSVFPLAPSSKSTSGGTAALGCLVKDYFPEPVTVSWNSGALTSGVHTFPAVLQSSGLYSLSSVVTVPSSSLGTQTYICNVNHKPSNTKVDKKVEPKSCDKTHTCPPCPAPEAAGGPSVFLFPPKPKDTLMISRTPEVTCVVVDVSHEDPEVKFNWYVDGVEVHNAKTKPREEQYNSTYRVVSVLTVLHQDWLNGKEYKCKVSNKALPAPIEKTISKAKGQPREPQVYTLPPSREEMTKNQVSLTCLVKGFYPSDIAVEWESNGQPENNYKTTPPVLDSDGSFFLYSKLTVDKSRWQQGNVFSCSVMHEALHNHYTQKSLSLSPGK
light: DIQMTQSPSSLSASVGDRVTITCRASQDVSTAVAWYQQKPGKAPKLLIYSASFLYSGVPSRFSGSGSGTDFTLTISSLQPEDFATTYYCQQSYTGTVTFGQGTKVEIKRTVAAPSVFIFPPDIQMTQSPSSLSASVGDRVTITCRASQDVSTAVAWYQQKPGKAPKLLIYSASFLYSGVPSRFSGSGSGTDFTLTISSLQPEDFATYYCQQSYTTPPTFGQGTKVEIKRTVAAPSVFIFPPSDEQLKSGTASVVCLLNNFYPREAKVQWKVDNALQSGNSQESVTEQDSKDSTYSLSSTLTLSKADYEKHKVYACEVTHQGLSSPVTKSFNRGEC
notes: DVD-Ig; also called DLL4 and VEGF DVD-Ig, HC linker long, LC linker long
EC50 (DLL4 [1]): 1.13 nM

B3: DVD034 (bispecific antibody, human IgG1, kappa)
heavy: not shown
light: DIQMTQSPSSVSASVGDRVTITCRASQGISSWLAWYQQKPGKAPNLLIYEASSLQSGVPSRFGGSGSGTDFTLTISSLQPEDFATYYCQQANGFPWTFGQGTKVEIKRTVAAPDVVMTQSPLSLPVTPGEPASISCRSSQSLLHSNGFNYVDWYLQKPGQSPHLLIYFGSYRASGVPDRFSGSGSGTDFTLKISRVEAEDVGVYYCMQALQTPPWTFGQGTKVEIRRTVAAPSVFIFPPSDEQLKSGTASVVCLLNNFYPREAKVQWKVDNALQSGNSQESVTEQDSKDSTYSLSSTLTLSKADYEKHKVYACEVTHQGLSSPVTKSFNRGEC
notes: DVD-Ig; outer AB012 (HGF), inner AB005 (RON); also called HGF and RON DVD-Ig
FACS Geometric Mean C-terminal (RON): 0.39

B4: DVD258 (PLGF (seq. 1) N-terminal / DLL-4 (seq. 1) C-terminal DVD-Ig) (bispecific antibody, human IgG1, kappa)
heavy: not shown
light: DIVLTQSPDSLAVSLGERVTMNCKSSQSLLNSGMRKSFLAWYQQKPGQSPKLLIYWASTRESGVPDRFTGSGSGTDFTLTISSVQAEDVAVYYCKQSYHLFTFGSGTKLEIKRTVAAPDIQMTQSPSSLSASVGDRVTITCRASQDVSTAVAWYQQKPGKAPKLLIYSASFLYSGVPSRFSGSGSGTDFTLTISSLQPEDFATTYYCQQSYTGTVTFGQGTKVEIKRTVAAPSVFIFPPSDEQLKSGTASVVCLLNNFYPREAKVQWKVDNALQSGNSQESVTEQDSKDSTYSLSSTLTLSKADYEKHKVYACEVTHQGLSSPVTKSFNRGEC
notes: also called VD258H; VD258L
IC50 [2]: 17.5 nM

B5: DVD258 (bispecific antibody, human IgG1, kappa)
heavy: not shown
light: B4 light
notes: DVD-Ig; outer AB047 (PlGF), inner AB015 (DLL4); also called PlGF and DLL4 DVD-Ig
FACS Geometric Mean C-terminal (DLL4 [3]): 5.57

B6: DVD485 (bispecific antibody, human IgG1, kappa)
heavy: not shown
light: DIQMTQSPSSLSASVGDRVTITCRASQDVSTAVAWYQQKPGKAPKLLIYSASFLYSGVPSRFSGSGSGTDFTLTISSLQPEDFATTYYCQQSYTGTVTFGQGTKVEIKRTVAAPSVFIFPPDIQMTQSPSSLSASVGDRVTITCRASQVIRRSLAWYQQKPGKAPKLLIYAASNLASGVPSRFSGSGSGTDFTLTISSLQPEDFATYYCQQSNTSPLTFGQGTKVEIKRTVAAPSVFIFPPSDEQLKSGTASVVCLLNNFYPREAKVQWKVDNALQSGNSQESVTEQDSKDSTYSLSSTLTLSKADYEKHKVYACEVTHQGLSSPVTKSFNRGEC
notes: DVD-Ig; outer AB015 (DLL4), inner AB071 (VEGF); also called DLL4 and VEGF DVD-Ig, HC linker short, LC linker long
EC50 (DLL4 [1]): 0.89 nM

B8: AB063 (anti-ErbB3 (seq. 2) parent antibody) (antibody, IgG1, V domains shown)
VH: EVQLVESGGGLVQPGGSLRLSCAASGFTFSIYSMNWVRQAPGKGLEWVSYISSSSSTIYYADSVKGRFTISRDNAKNSLYLQMNSLRDEDTAVYYCARDRGDFDAFDIWGQGTMVTVSS
VL: DIQMTQSPSSLSASVGDRVTITCQASQDITNYLNWYQQKPGKAPKLLIYDASNLETGVPSRFSGSGSGTDFTFTISSLQPEDIATYNCQQCENFPITFGQGTRLEIKR
notes: HC vector V1 (wild-type hIgG1 constant), LC vector V2 (kappa constant); also called AB063VH; AB063VL
EC50 [4]: 0.28 nM

B9: DVD047 (bispecific antibody, human IgG1, kappa)
heavy: not shown
light: DIQMTQSPSSLSASVGDRVTITCSASQDISNYLNWYQQKPGKAPKVLIYFTSSLHSGVPSRFSGSGSGTDFTLTISSLQPEDFATYYCQQYSTVPWTFGQGTKVEIKRTVAAPDVVMTQSPLSLPVTPGEPASISCRSSQSLLHSNGFNYVDWYLQKPGQSPHLLIYFGSYRASGVPDRFSGSGSGTDFTLKISRVEAEDVGVYYCMQALQTPPWTFGQGTKVEIRRTVAAPSVFIFPPSDEQLKSGTASVVCLLNNFYPREAKVQWKVDNALQSGNSQESVTEQDSKDSTYSLSSTLTLSKADYEKHKVYACEVTHQGLSSPVTKSFNRGEC
notes: DVD-Ig; also called VEGF and RON DVD-Ig
FACS Geometric Mean C-terminal (RON): 0.51

B11: DVD043 (VEGF (seq. 1) N-terminal / DLL4 (seq. 1) C-terminal DVD-Ig) (bispecific antibody, human IgG1, kappa)
heavy: not shown
light: DIQMTQSPSSLSASVGDRVTITCSASQDISNYLNWYQQKPGKAPKVLIYFTSSLHSGVPSRFSGSGSGTDFTLTISSLQPEDFATYYCQQYSTVPWTFGQGTKVEIKRTVAAPDIQMTQSPSSLSASVGDRVTITCRASQDVSTAVAWYQQKPGKAPKLLIYSASFLYSGVPSRFSGSGSGTDFTLTISSLQPEDFATTYYCQQSYTGTVTFGQGTKVEIKRTVAAPSVFIFPPSDEQLKSGTASVVCLLNNFYPREAKVQWKVDNALQSGNSQESVTEQDSKDSTYSLSSTLTLSKADYEKHKVYACEVTHQGLSSPVTKSFNRGEC
notes: also called DVD043H/DVD043L
IC50 [2]: 13.1 nM

The next lines start with the values.

EC50 (PlGF (Placental GF)): 0.08 nM
EC50 (DLL4 (DLL4 ECD/His tag)): 2.3 nM
B2: DVD258 (PLGF (seq. 1) and DLL-4 (seq. 1) DVD-Ig) (bispecific antibody, IgG1)
VH: QVQLQQSGAELVKPGASVKISCKASGYTFTDYYINWVKLAPGQGLEWIGWIYPGSGNTKYNEKFKGKATLTIDTSSSTAYMQLSSLTSEDTAVYFCVRDSPFFDYWGQGTLLTVSSASTKGPEVQLVESGGGLVQPGGSLRLSCAASGFTFTDNWISWVRQAPGKGLEWVGYISPNSGFTYYADSVKGRFTISADTSKNTAYLQMNSLRAEDTAVYYCARDNFGGYFDYWGQGTLVTVSS
VL: DIVLTQSPDSLAVSLGERVTMNCKSSQSLLNSGMRKSFLAWYQQKPGQSPKLLIYWASTRESGVPDRFTGSGSGTDFTLTISSVQAEDVAVYYCKQSYHLFTFGSGTKLEIKRTVAAPDIQMTQSPSSLSASVGDRVTITCRASQDVSTAVAWYQQKPGKAPKLLIYSASFLYSGVPSRFSGSGSGTDFTLTISSLQPEDFATTYYCQQSYTGTVTFGQGTKVEIKR
notes: Outer AB047, inner AB015; HC vector V1 (wild-type hIgG1 constant), LC vector V2 (kappa constant); also called VD258H; VD258L

EC50 [4]: 1.93 nM
B7: AB062 (anti-ErbB3 (seq. 1) parent antibody) (antibody, IgG1, V domains shown)
VH: QVQLQQWGAGLLKPSETLSLTCAVYGGSFSGYYWSWIRQPPGKGLEWIGEINHSGSTNYNPSLKSRVTISVETSKNQFSLKLSSVTAADTAVYYCARDKWTWYFDLWGRGTLVTVSS
VL: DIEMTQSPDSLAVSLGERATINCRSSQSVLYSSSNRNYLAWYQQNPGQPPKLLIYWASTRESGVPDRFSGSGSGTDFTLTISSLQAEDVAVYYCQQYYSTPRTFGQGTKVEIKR
notes: HC vector V1 (wild-type hIgG1 constant), LC vector V2 (kappa constant); also called AB062VH; AB062VL

EC50 (PlGF (Placental GF)): 0.12 nM
B10: DVD260 (PLGF (seq. 1) and VEGF (seq. 1) DVD-Ig) (bispecific antibody, IgG1)
VH: QVQLQQSGAELVKPGASVKISCKASGYTFTDYYINWVKLAPGQGLEWIGWIYPGSGNTKYNEKFKGKATLTIDTSSSTAYMQLSSLTSEDTAVYFCVRDSPFFDYWGQGTLLTVSSASTKGPEVQLVESGGGLVQPGGSLRLSCAASGYTFTNYGMNWVRQAPGKGLEWVGWINTYTGEPTYAADFKRRFTFSLDTSKSTAYLQMNSLRAEDTAVYYCAKYPHYYGSSHWYFDVWGQGTLVTVSS
VL: DIVLTQSPDSLAVSLGERVTMNCKSSQSLLNSGMRKSFLAWYQQKPGQSPKLLIYWASTRESGVPDRFTGSGSGTDFTLTISSVQAEDVAVYYCKQSYHLFTFGSGTKLEIKRTVAAPDIQMTQSPSSLSASVGDRVTITCSASQDISNYLNWYQQKPGKAPKVLIYFTSSLHSGVPSRFSGSGSGTDFTLTISSLQPEDFATYYCQQYSTVPWTFGQGTKVEIKR
notes: HC vector V1 (wild-type hIgG1 constant), LC vector V2 (kappa constant); also called VD260H; VD260L

FACS Geometric Mean C-terminal (DLL4 [3]): 68.4
B12: DVD043 (bispecific antibody, human IgG1, kappa)
heavy: not shown
light: B11 light
notes: DVD-Ig; also called VEGF and DLL4 DVD-Ig
